Assay results taken from article PMC3817407.

T1: ECF02_2817
T1 chain: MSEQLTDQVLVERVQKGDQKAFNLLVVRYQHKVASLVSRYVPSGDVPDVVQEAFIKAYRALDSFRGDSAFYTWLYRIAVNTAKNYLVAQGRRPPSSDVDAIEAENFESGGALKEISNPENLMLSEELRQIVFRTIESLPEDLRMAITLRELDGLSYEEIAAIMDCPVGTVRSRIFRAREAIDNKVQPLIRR

T2: ECF02_915
T2 chain: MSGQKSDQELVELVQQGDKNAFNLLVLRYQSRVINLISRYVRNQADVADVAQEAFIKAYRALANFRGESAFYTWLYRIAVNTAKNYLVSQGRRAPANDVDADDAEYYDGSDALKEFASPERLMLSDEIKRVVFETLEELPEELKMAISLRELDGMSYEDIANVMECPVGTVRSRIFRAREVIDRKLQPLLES

T3: ECF03_1198
T3 chain: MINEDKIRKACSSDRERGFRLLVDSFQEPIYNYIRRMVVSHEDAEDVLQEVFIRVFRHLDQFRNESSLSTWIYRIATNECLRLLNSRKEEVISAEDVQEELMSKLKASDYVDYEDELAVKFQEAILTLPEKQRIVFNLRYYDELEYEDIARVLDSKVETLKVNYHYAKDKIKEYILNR

T4: ECF03_1244
T4 chain: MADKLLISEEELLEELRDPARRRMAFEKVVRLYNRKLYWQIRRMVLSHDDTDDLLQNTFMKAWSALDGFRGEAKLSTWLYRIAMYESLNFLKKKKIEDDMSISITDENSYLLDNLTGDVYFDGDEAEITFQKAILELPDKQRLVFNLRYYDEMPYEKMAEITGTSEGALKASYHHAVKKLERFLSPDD

T5: ECF11_987
T5 chain: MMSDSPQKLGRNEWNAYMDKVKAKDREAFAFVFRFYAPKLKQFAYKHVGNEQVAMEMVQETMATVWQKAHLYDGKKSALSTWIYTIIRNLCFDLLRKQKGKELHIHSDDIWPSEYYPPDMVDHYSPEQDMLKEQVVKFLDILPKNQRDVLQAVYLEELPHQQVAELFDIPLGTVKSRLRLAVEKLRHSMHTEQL

T6: ECF14_1324
T6 chain: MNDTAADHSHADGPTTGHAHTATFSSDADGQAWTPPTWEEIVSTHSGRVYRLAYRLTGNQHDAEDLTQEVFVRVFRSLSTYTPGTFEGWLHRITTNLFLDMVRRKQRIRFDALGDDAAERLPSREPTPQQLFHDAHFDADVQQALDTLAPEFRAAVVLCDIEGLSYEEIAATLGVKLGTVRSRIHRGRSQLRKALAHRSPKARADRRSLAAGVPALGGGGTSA

T7: ECF14_3200
T7 chain: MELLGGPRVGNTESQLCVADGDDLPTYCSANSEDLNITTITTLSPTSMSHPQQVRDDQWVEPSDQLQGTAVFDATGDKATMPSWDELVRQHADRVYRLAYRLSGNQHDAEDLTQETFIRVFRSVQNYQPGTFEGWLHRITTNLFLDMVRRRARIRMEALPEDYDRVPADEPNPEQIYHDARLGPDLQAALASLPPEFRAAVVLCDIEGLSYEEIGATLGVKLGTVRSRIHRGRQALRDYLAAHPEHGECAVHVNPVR

T8: ECF17_1458
T8 chain: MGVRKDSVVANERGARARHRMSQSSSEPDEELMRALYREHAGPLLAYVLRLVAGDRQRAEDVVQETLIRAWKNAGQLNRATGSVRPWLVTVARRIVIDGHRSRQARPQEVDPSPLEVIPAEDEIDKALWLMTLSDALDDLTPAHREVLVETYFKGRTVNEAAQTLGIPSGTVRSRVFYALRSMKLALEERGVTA

T9: ECF20_992
T9 chain: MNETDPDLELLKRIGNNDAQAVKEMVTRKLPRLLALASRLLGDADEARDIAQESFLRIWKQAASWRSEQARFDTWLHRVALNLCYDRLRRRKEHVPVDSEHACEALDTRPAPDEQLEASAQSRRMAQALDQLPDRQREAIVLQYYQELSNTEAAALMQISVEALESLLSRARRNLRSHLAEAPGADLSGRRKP

T10: ECF22_4450
T10 chain: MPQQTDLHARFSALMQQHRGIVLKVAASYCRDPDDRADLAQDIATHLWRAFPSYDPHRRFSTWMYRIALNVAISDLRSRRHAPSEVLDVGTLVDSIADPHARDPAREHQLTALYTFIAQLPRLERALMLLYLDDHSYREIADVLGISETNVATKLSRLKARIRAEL

T11: ECF28_1040
T11 chain: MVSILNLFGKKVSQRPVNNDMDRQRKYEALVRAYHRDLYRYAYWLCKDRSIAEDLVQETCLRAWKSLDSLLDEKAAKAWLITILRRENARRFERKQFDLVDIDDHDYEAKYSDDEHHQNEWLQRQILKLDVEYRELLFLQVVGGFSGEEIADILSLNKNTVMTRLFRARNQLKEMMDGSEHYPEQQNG

T12: ECF31_34
T12 chain: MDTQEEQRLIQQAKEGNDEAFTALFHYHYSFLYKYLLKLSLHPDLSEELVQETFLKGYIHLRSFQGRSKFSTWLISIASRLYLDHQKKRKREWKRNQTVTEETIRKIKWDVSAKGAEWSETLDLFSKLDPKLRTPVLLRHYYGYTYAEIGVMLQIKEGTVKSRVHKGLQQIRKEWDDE

T13: ECF33_375
T13 chain: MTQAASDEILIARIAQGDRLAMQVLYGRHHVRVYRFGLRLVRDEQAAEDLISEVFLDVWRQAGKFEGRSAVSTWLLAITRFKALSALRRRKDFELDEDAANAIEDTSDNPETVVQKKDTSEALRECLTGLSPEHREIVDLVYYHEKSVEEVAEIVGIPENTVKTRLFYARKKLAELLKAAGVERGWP

T14: ECF33_423
T14 chain: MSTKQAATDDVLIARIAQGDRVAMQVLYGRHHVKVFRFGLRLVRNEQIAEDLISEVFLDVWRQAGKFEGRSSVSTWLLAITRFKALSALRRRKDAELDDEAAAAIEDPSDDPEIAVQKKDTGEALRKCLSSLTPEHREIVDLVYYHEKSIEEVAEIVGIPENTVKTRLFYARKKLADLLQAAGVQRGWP

B1: AS16_973 (protein)
chain: MKTDDLIALLAAGEGPVPRHAVGRRMAVAALGGLTAALLLTITLYGVRSDITEVAQTPLFWGKVAFPTSLALIGLWLTSRLARPGGKGAAGWKMLGLPLLLVWCGAAVSIAGAPVDARADLLFGRTWRTCALNIALLSVPAFVTVFWALKGLAPTRLRLAGAAGGLLAGSSATVAYCLHCPEMGVPFWGVWYVLGMLVPTVLGAWWGPRMLRW
B2: AS20_992 (protein)
chain: MTPERFVHLADAYGADLQRWPSAERAAAQALLDCGDAQAVAALRQAHWLDSQLDRYQVPAPSPALAQRIIAAAQQPGAPFWSRYAGWLASLGWVGVGLTGVAAGMLAVALSLPLSTSAEALPSVFDQSDAEFVLSINAEEAEQ
B3: AS16_3622 (protein)
chain: MMKTDELISLLATAEGPVDRHALARRLGLALLAGLLGALLLTVALYGVRSDLAEVARTPLFWAKVALPTSLALLGLWLTQRLARPGVRGGALWGLLGVPLLLVWLGAAISLFGAPPEARADLIFGRTWRTCALNITLLSTPVFIAVFWALRGLAPTRLRQAGAAGGLLAGSTATLVYCLHCPEMGVPFWGLWYLLGMLVPTLLGAVLGPRLLRW
B4: AS02_915 (protein)
chain: MEKTGQEWVSASVDGETDRQTLAELAADTDSHAKWQRYHLMGDAMRDELPQAMPLDLSARIAAALEDEPTILAPKVEREATQAPSRAVVVPFMRQLGQYGIAAAVALMAVVGVQNYQSTQDDAPLPVLNTRPLVGTATPVSLQTGPVANQNQGNANDQLLEQRRRINAYLQDHMLQQRLNTGAVVDDNSEVTPIPVNR
B5: AS22_1147 (protein)
chain: MELDDIAVAWRSLEQRLDQHAALAGQVLGDLRSHAARAHLRPLWLSQSAQLLCAIALSGLVAHSWLAFPEQAAAIVGGVLLQIWCVALAASAARQLWLLSQLDFARPLLQTQRALAQLRRWRTRVAPWLGVAFWVLWVAVADAAWRALTGRSLPYAWLLCNLLVGVLGGIGTWLGYRRLQRSGHPWLERLDTVHAGRSVARTETLLEQIARFQRE
B6: AS15_524 (protein)
chain: MNFGVEDMIEHVPMEDKRKGAAALDEARLRQQAIGVKLRQMFDEVVNEPVPDEFLAILRKAERPAGGE
B7: AS22_4450 (protein)
chain: MELDDMKHAWQTLEQRLDQQAAQTGQLLGVVHEETVRSSLRPLWVAQTAQLLCALALAIVSARSWIPHTDQPVAVIGGVLLQAWCMALAISAMVQLQLLTQFNVAGPLLRTQHALARLRRWRTRVAPWLGVAFWVLWIAVADALWRALTGQTLPTDWLVLNLLVGVAGGIGTWLGFRRLQRAQHPWLERIDRAHAGTGVIRAERMLEEIARFQRD

Target: T1, ECF02_2817

Compared with B1, B2 is higher in fold repression: 0.448 for the first, 1.74 for the second.

First: B3
Second: B4
The fold repression of the first is lower: 1.37 for the first, 5.22 for the second.

Compared with B5, B6 is higher in fold repression: 2.38 for the first, 2.65 for the second.

Work on B7 yielded a fold repression of 1.98.

Target: T2, ECF02_915

Compared with B1, B2 is higher in fold repression: 0.403 for the first, 1.93 for the second.

Going from B3 to B4, the fold repression rises from 1.26 to 29.2.

Compared with B5, B6 is lower in fold repression: 3.59 for the first, 2.67 for the second.

B7 showed a fold repression of 2.12.

Target: T3, ECF03_1198

Going from B1 to B2, the fold repression rises from 0.72 to 1.53.

Compared with B3, B4 is higher in fold repression: 2.71 for the first, 3.28 for the second.

Compared with B5, B6 is higher in fold repression: 2.82 for the first, 3.92 for the second.

B7 gave a fold repression of 2.46.

Target: T4, ECF03_1244

Going from B1 to B2, the fold repression rises from 0.783 to 1.39.

Compared with B3, B4 is higher in fold repression: 2.09 for the first, 3.01 for the second.

Compared with B5, B6 is lower in fold repression: 3.22 for the first, 2.96 for the second.

In the case of B7, the fold repression is reported as 1.75.

Target: T5, ECF11_987

Going from B1 to B2, the fold repression rises from 1.32 to 2.81.

First: B3
Second: B4
The fold repression of the first is higher: 4.23 for the first, 3.88 for the second.

First: B5
Second: B6
The fold repression of the first is lower: 3.16 for the first, 3.74 for the second.

With B7 the fold repression was 1.89.

Target: T6, ECF14_1324

Compared with B1, B2 is higher in fold repression: 0.887 for the first, 1.64 for the second.

First: B3
Second: B4
The fold repression of the first is higher: 8.8 for the first, 4.42 for the second.

Compared with B5, B6 is higher in fold repression: 4.18 for the first, 10.5 for the second.

B7 showed a fold repression of 2.85.

Target: T7, ECF14_3200

First: B1
Second: B2
The fold repression of the first is lower: 0.918 for the first, 2.04 for the second.

First: B3
Second: B4
The fold repression of the first is higher: 8.73 for the first, 6.23 for the second.

Compared with B5, B6 is higher in fold repression: 5.04 for the first, 12.9 for the second.

Binder B7 has a fold repression of 1.94.

Target: T8, ECF17_1458

Going from B1 to B2, the fold repression rises from 1.11 to 1.5.

First: B3
Second: B4
The fold repression of the first is higher: 4.75 for the first, 2.74 for the second.

First: B5
Second: B6
The fold repression of the first is lower: 2.2 for the first, 9.33 for the second.

In the case of B7, the fold repression is reported as 1.23.

Target: T9, ECF20_992

Compared with B1, B2 is higher in fold repression: 0.636 for the first, 169 for the second.

Going from B3 to B4, the fold repression rises from 2.48 to 4.44.

Going from B5 to B6, the fold repression rises from 2.35 to 5.56.

With B7 the fold repression was 1.54.

Target: T10, ECF22_4450

First: B1
Second: B2
The fold repression of the first is higher: 2.62 for the first, 2.29 for the second.

Going from B3 to B4, the fold repression falls from 4.51 to 4.13.

First: B5
Second: B6
The fold repression of the first is higher: 35.7 for the first, 11.1 for the second.

With B7 the fold repression was 12.7.

target: ECF26_4464

Going from B1 to B2, the fold repression rises from 1.46 to 2.04.

Compared with B3, B4 is lower in fold repression: 8.91 for the first, 3.42 for the second.

Going from B5 to B6, the fold repression rises from 3.82 to 28.2.

For B7, the fold repression was 2.51.

Target: T11, ECF28_1040

Going from B1 to B2, the fold repression rises from 1.39 to 2.12.

Going from B3 to B4, the fold repression falls from 3.02 to 2.03.

Going from B5 to B6, the fold repression rises from 1.78 to 4.67.

B7 was tested, and the fold repression was 1.4.

Target: T12, ECF31_34

First: B1
Second: B2
The fold repression of the first is lower: 0.696 for the first, 1.96 for the second.

Compared with B3, B4 is higher in fold repression: 2.85 for the first, 3.89 for the second.

Going from B5 to B6, the fold repression rises from 2.31 to 6.57.

In the case of B7, the fold repression is reported as 1.48.

Target: T13, ECF33_375

Compared with B1, B2 is higher in fold repression: 0.373 for the first, 1.04 for the second.

First: B3
Second: B4
The fold repression of the first is lower: 1.17 for the first, 2.44 for the second.

Going from B5 to B6, the fold repression rises from 1.26 to 4.38.

Work on B7 yielded a fold repression of 1.4.

Target: T14, ECF33_423

Going from B1 to B2, the fold repression rises from 0.683 to 1.32.

Compared with B3, B4 is higher in fold repression: 1.87 for the first, 2.28 for the second.

Going from B5 to B6, the fold repression rises from 1.76 to 6.68.

With B7 the fold repression was 1.24.
